“Also recorded” adds a separate entry of the source.
How the values were obtained:
[1] = system: Molt3 cells; assay: Cell metabolic assay (MTT); format: cell-based
Protocol: After taking the photographs in Example 3 (and in some instances no photographs were taken), cell metabolic activity was assessed by an MTT assay. A 37.5 μl portion of MTT dye (purchased from SIGMA of St. Louis, Mo.), i.e., 3-[4,5-dimethyl thiazole-2yl]-2, 5- diphenyl tetrazolium bromide; thiazolyl blue) was added to each well, and incubated with the cells at 37° C. for about six hours. After incubation, a 250 μl quantity of a MTT solubilization solution (of a type that may be purchased from either Fischer Scientific of St. Louis, Mo. or BCD Labs of Lawrence, Kans.) was added to each well, and incubated with the cells at room temperature overnight. In the morning, the spectrophotometric absorption of each plate was determined at 570 nm in a microplate ELISA reader manufactured by Cambridge Technologies of Water-town, Mass., in order to assess cell viability as an indicator of potential peptide toxicity.

[2] = system: Molt3 cells; assay: Homotypic adhesion assay (MDHC-induced clumping of T-cells); format: cell-based, human; parameters: key to Homotypic Adhesion Amount: Any sample having a score of "+++" or "++++" is considered to have a significant ability to modulate T-cell binding interaction; Any sample having a score of "+++" or "++++" is considered to have a significant ability to modulate T-cell binding interaction; conditions: 10 μM MDHC
Protocol: As before, the T-cells were Molt3 cells prepared in RPMI 1640 growth medium according to Example 2. An approximate 7 ml aliquot of the growth medium was centrifuged (Jouan Model GT422 at 1400 rpm for 6.5 minutes), and the supernatant fluid was decanted. The pellet was resuspended in the supernatant fluid at titer of about 1×10^6 cells/ml, with the excess supernatant fluid being retained for future resuspension of the peptides.
A 228 nmol quantity of the LJCRF-1 (Sequence ID No. 6) peptide described in Table 1 was diluted with the supernatant fluid to a 500 μl final volume, and filtered in microcentrifuge filter tubes (0.22 micron filter; 3500 rpm for 6 minutes). Serial dilution of the filtered peptide with supernatant fluid was conducted to yield five 125 μl peptide solutions to give respective concentrations of about 115 μM, 230 μM, 460 μM, 910 μM, and 1.82 mM. At each concentration, a 125 μl portion of the cell suspension was pipetted into each 125 μl portion of the peptide solutions to yield combined samples having a 250 μl volume. The 250 μl samples were seeded into individual wells in a 48-well tissue culture grade plate (from Costar of Cambridge, Md.) and incubated at 37° C. for 30 minutes. Each sample received 5 μl of 2,5-methyl dihydroxy cinnamate ("MDHC") for a 10 μM final concentration, and was subsequently incubated for about 10 hours at 37° C. MDHC induces intercellular clumping of human T-cells (Tibbetts, Butler, and Benedict, submitted) by activating the LFA/ICAM binding interaction between respective cells.
Pictures were taken of five random fields per sample using an Olympus photomicroscope having a 0.8 mm field at 400×magnification, and a 3.2 mm field of view at 100×magnification. The amount of clumping observed was quantified by determining the mean number of clumps per field ± a standard error.
FIGS. 5, 6, and 7 replicate photographs taken from exemplary peptide assays. FIG. 5 is a photograph of the control sample having no peptides and no MDHC added, from which essentially no clumping of cells is observed. […] Any sample having a score of "+++" or "++++" is considered to have a significant ability to modulate T-cell binding interaction. This is similar to results obtained by incubating similarly treated cells with antibody against either LFA or ICAM.
The homotypic adhesion assay assesses the actual ability of a candidate peptide to modulate the ability of T-cells to adhere with one another.

[3] = target: T1, ICAM-1 (CD54) (Homo sapiens, UniProt P05362); assay: Antibody binding assay (FACS): anti-ICAM-1 mAb (mouse IgG anti-human CD54) binding to Molt3 T-cells after peptide incubation; format: cell-based; conditions: for Fluorescence, % change from control of the medium fluorescence intensity: mAb CD54
T1 construct: host or cells: Molt3 human T-cell leukemia line

[4] = target: T2, ICAM-1 (Homo sapiens, UniProt P05362); assay: Conformation modulator assay: flow cytometry of FITC-labeled RB-1-88 binding to T-cells after pre-incubation with first peptide; format: cell-based; conditions: first peptide 4550 μM
T2 construct: host or cells: Molt3 human T-cell leukemia line
Protocol: The antibody binding assay of Example 2 was twice repeated at a peptide concentration of 4550 μM, each time substituting a 455 nmol quantity of synthetic peptide selected from the group consisting of ICAM-based peptide SC-3-111 (Sequence ID No. 10) and LFA-based peptide LJCRF-4 (Sequence ID No. 16) in respective assays. Following incubation for 30 minutes at 37° C. after introduction of the first peptides, both incubated culture were supplemented by an additional quantity of FITC-labeled RB-1-88 (Sequence ID No. 19) peptide in a quantity sufficient to provide a 1.90 μM concentration in the cell/PBS solution.
Following addition of the RB-1-88 (Sequence ID No. 19) peptide, the mixture was incubated for 30 minutes at 4° C., washed three times with 500 μl PBS/BSA, resuspended in 500 μl PBS/BSA and immediately subjected to a flow cytometer analysis as before. Table 3 presents the results of this analysis, which are also depicted in FIGS. 8 (SC-3-111) and 9 (LJCRF-4).

T1 sequence (P05362 28-532): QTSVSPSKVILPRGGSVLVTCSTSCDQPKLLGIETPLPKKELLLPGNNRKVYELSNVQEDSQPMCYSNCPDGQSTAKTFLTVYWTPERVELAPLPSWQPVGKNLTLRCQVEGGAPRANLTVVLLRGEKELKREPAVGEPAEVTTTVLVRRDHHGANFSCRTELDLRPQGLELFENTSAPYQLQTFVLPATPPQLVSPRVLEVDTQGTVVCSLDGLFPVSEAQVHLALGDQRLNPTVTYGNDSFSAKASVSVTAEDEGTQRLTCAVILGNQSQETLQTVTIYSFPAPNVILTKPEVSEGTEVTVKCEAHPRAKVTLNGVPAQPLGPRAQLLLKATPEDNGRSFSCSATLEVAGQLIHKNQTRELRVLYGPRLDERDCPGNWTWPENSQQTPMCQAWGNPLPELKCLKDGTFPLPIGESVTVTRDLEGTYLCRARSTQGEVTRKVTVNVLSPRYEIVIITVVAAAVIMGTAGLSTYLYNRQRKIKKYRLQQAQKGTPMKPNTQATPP
T2 sequence (P05362 28-532): as above

LJCRF-4: LFA-1β based modulator peptide, Sequence ID No. 16 (DLSYSLDDLRNVKKLGGDLLRALNE)
MTT % Viability ([1]; peptide 115 μM): 99%
MTT % Viability ([1]; peptide 230 μM): 101%
MTT % Viability ([1]; peptide 460 μM): 94%
MTT % Viability ([1]; peptide 910 μM): 60%
MTT % Viability ([1]; peptide 1820 μM): 11%
Homotypic Adhesion Amount ([2]; peptide 115 μM): +++
Homotypic Adhesion Effect ([2]; peptide 115 μM): Enhance
Homotypic Adhesion Amount ([2]; peptide 230 μM): +++
Homotypic Adhesion Effect ([2]; peptide 230 μM): Enhance; also recorded: binding enhancers
Homotypic Adhesion Amount ([2]; peptide 460 μM): ++++
Homotypic Adhesion Effect ([2]; peptide 460 μM): Block; also recorded: blockers of intercellular adhesion
Homotypic Adhesion Amount ([2]; peptide 910 μM): ++++
Homotypic Adhesion Effect ([2]; peptide 910 μM): Block
Homotypic Adhesion Amount ([2]; peptide 1820 μM): +++
Homotypic Adhesion Effect ([2]; peptide 1820 μM): Block
effect on anti-ICAM-1 mAb binding ([3]; FIG. 4, peptide 4550 μM): promote the specific antibody binding
Fluorescence, % change from control of the medium fluorescence intensity ([3]; peptide 2275 μM, average ± standard error of runs): +3 ± 1%
Fluorescence, % change from control of the medium fluorescence intensity ([3]; peptide 6825 μM, 1 run): +521%
median peak curve shift (enhancement) ([3]; single run of FIG. 4, peptide 4550 μM, anti-ICAM antibody): +447%
FACS Analysis (RB-1-88 binding) ([4]; then FITC-labeled RB-1-88 1.90 μM, shift vs control): +145%
effect on binding of labeled peptide (RB-1-88 / LJCRF-6) to T-cell ICAM-1 ([4]; FIGS. 8, 9): synergistically increases binding; also recorded: significant T-cell binding enhancement; also recorded: significantly enhanced

Reference: patent US5863889A, “ICAM-1/LFA-1 short-chain peptides and method of using same” (The University of Kansas, priority 1996, dated 1999)
